Source: patent US20240228986A1, “ENGINEERED CELLS, ENZYMES, AND METHODS FOR PRODUCING CANNABINOIDS” (priority 2021, published 2024)

B1: MPT26 (protein)
chain: MSDNSIATKILNFGHTCWKLQRPYVVKGMISIACGLFGKELLHNTNLISWGLMWKAFFALVPILSFNFFAAIMNQIYDVDIDRINKPDLPLVSGEMSIETAWILSIIVALTGLIVTIKLKSAPLFVFIYIFGIFAGFAYSVPPIRWKQNPSTNFLITISSHVGLAFTSYSATTSALGLPFVWRPAFSFIIAFMTVMGMTIAFAKDISDIEGDAKYGVSTVATKLGARNMTFVVSGVLLLNYVAAILAGIIWPQAFNSNVMLLSHAILAFWLILQTRDFALTNYDPEAGRRFFEFIWLLYYAEYFVYVFI
modifications: MPT26 (recombinant membrane-bound prenyltransferase)
B2: MPT21 (protein)
chain: MSDNSIATKILNFGHTCWKLQRPYVVKGMISIACGLFGKELLHNTNLISWGLMWKAFFALVPILSFNFFAAIMNQIYDVDIDRINKPDLPLVSGEMSIETAWILSIIVALTGLIVTIKLKSAPLFVFIYIFGIFAGFAYSVPPIRWKQNPSTNFLITISSHVGLAFTSYYASRAALGLPFELRPSFTFLLAFMTVMGMTIAFAKDISDIEGDAKYGVSTVATKLGARNMTFVVSGVLLLNYVAAILAGIIWPQAFNSNVMLLSHAILAFCLIFQTRELALANYASAPSRQFFEFIWLLYYAEYFVYVFI
modifications: MPT21 (recombinant membrane-bound prenyltransferase)
B3: MPT31 (protein)
chain: MSDNSIATKILNFGHACWKLQRPYVVKGMISIACGLFGRELLHNTNLISWGLMWKAFFALVPILSFNFFAAIMNQIYDLHIDRINKPDLPLASGEISVNTAWIMSIIVALTGLIVTIKLKSAPLFVFIYIFGIFAGFAYSVPPIRWKQNPSTNFLITISSHVGLAFTSYYASRAALGLPFELRPSFTFLLAFMTVMGMTIAFAKDISDIEGDAKYGVSTVATKLGARNMTFVVSGVLLLNYLVSISIGIIWPQVFKSNIMILSHAILAFWLILQTRDFALTNYDPEAGRRFFEFIWLLYYAEYLVYVFI
modifications: MPT31 (recombinant membrane-bound prenyltransferase)
B4: GPS1.1-F11-MPT4.1: fusion of GPS1.1 and MPT4.1 via F11 linker, SEQ ID NO: 56 (protein)
chain: MSKAKFESVFPRISEELVQLLRDEGLPQDAVQWFSDSLQYNCVGGKLNRGLSVVDTYQLLTGKKELDDEEYYRLALLGWLIELLQAFWLVSDDIMDESKTRRGQPCWYLKPKVGMIAIWDAFMLESGIYILLKKHFRQEKYYIDLVELFHDISFKTELGQLVDLLTAPEDEVDLNRFSLDKHSFIVRYKTAYYSFYLPVVLAMYVAGITNPKDLQQAMDVLIPLGEYFQVQDDYLDNFGDPEFIGKIGTDIQDNKCSWLVNKALQKATPEQRQILEDNYGVKDKSKELVIKKLYDDMKIEQDYLDYEEEVVGDIKKKIEQVDESRGFKKEVLNAFLAKIYKRQKGGAEAAAKEAAAKAGGSGGGSGGGGSGGSGGGGSGGGGSMSDNSIATKILNFGHTCWKLQRPYAVKGMISIACGLFGRELFNNRHLFSWGLMWKAFFALVPILSFNFFAAIMNQIYDVDIDRINKPDLPLVSGEMSIETAWILSIIVALTGLIVTIKLKSAPLFVFIYIFGIFAGFAYSVPPIRWKQYPFTNFLITISSHVGLAFTSYSATTSALGLPFVWRPAFSFIIAFMTVMGMTIAFAKDISDIEGDAKYGVSTVATKLGARNMTFVVSGVLLLNYLVSISIGIIWPQVFKSNIMILSHAILAFCLIFQTRELALANYASAPSRQFFEFIWLLYYAEYFVYVFI
modifications: GPS1.1-F11-MPT4.1, geranyl diphosphate synthase, point mutant membrane-bound prenyltransferase fusion protein

Assays:
olivetolic acid [1] = assay: Screening of MPT library hits in Yarrowia, OA feed (Example 2); format: cell-based; conditions: OA Feed (48 h); for CBGA: 2 mM olivetolic acid, minimal media, 0.5% ethanol, strain sCL-SE-0128, product accumulated; for CBGA/FCBGA: product ratio
Procedure: (§1) As described in detail below, plasmid pCL-SE-0337.MPT21,26,31 were transformed into strain sCL-SE-0128 and 4 separate colonies of each were patched and precultured for 48 h. Assay cultures consisted of minimal media with 100 mM MES pH 6.5, 0.5% ethanol and 2 mM olivetolic or divarinic acid (DVA). Cultures with olivetolic acid were quenched with equal volume of ethanol after 48 h total growth while cultures with DVA with quenched after 96 h total growth. Enzymes produced CBGA and FCBGA from olivetolic acid and CBGVA and FCBGVA from DVA. Averages and standard deviations were calculated from replicates.
(§2) Overnight YPD (10 g/L yeast extract, 20 g/L peptone, 2% dextrose) cultures were inoculated from glycerol stocks of the appropriate strain and grown at 30° C. with 250 rpm shaking. Once cultures had reached an OD600 of 4-6, cultures were centrifuged at 500×g for 5 min, supernatants were discarded, and cell pellets were resuspended in equal volume of water. Resuspended cells were centrifuged at 500×g for 5 min, supernatants were discarded, and cells were resuspended in a volume (75 μL×OD×Vculture) of transformation cocktail (45% PEG-400, 0.1 M LiAc, 0.1 M DTT, and 25 ug/100 μL SS Salmon Sperm DNA). For each transformation, >1 μg of plasmid DNA was added to 55 μL cells/transformation cocktail and vortexed for 2 s. Transformations were incubated at 39° C. for 1 h with 250 rpm shaking. Transformations were resuspended in 750 μL YPD with 1 M sorbitol and recovered at 30° C. overnight with 250 rpm shaking. The next day, transformations were centrifuged at 500×g for 5 min, supernatants were discarded, and cell pellets were resuspended in 750 YPD. Resuspended transformations were plated on YPD with appropriate selection or YNBD (6.71 g/L yeast nitrogen base+nitrogen, 0.5% casamino acids, 2% dextrose) agar plates and grown at 30° C. for 2 days. Individual colonies were patched onto YPD plates with appropriate selection or YNBD plates and grown at 30° C. overnight. Patches were used to inoculate 0.5 mL YPD with appropriate selection or YNBD precultures in 96 w blocks and grown at 30° C. for 24-48 h with 1000 rpm shaking. For assays, 0.5 mL YPD with appropriate selection or YNBD cultures containing substrate were inoculated with 2 μL from precultures and grown at 30° C. for 2-4 days with 1000 rpm shaking with 2% glucose added every 24 h. Assay cultures were quenched by addition of 0.5 mL ethanol with 0.2% formic acid and 0.5 mg/mL pentyl-benzoic acid. Precipitates were pelleted by centrifuging at 4600×g for 10 min and then 200 μL was transferred to fresh plates, sealed, and analyzed via HPLC.
(§3) All samples were quenched with equal volume of EtOH containing 0.2 mg/mL internal standard (3,5-Diisopropyl-2-hydroxybenzoic acid CAS #2215-21-6) centrifuged, and clarified solutions were analyzed by HPLC-MS
(§4) • Column: 2.1×50 mm COSMOCORE PBr (Nacalai USA, Inc.) • Mobile Phase: A; 0.1% formic acid in water, B; 0.1% formic acid in acetonitrile • Flow: 0.45 mL/min • Temp: % 50 Celsius • Gradient: 20%B at 0 min, 70%B at 2.3 min, 89% B at 4.2 min, 20% B at 4.3 min, 20%B at 6 min

divarinic acid (DVA) = assay: Screening of MPT library hits in Yarrowia, DVA feed (Example 2); format: cell-based; conditions: DVA Feed (96 h); for CBGVA: 2 mM DVA, minimal media, 0.5% ethanol, strain sCL-SE-0128, product accumulated; for CBGVA/FCBGVA: product ratio
Procedure: as §1, §2, §3, §4

olivetolic acid [2] = assay: MPT fusions with GPS1.1 vs unfused MPTs, OA feed (Example 8, Table 9); format: cell-based, Yarrowia; conditions: 2 mM olivetolic acid, 48 h quench; for CBGA / FCBGA: 2% glucose, strain sCL-SE-0128; for CBGA/FCBGA: product ratio
Procedure: (§5) As described below, plasmids pCL-SE-0406, pCL-SE-0664, pCL-SE-0663, pCL-SE-0662, pCL-SE-0380 (MPT4), pCL-SE-0337.MPT21, pCL-SE-0337.MPT26, and pCL-SE-0337.MPT31 were transformed into strain sCL-SE-0128. Multiple colonies per transformation were precultured for 48 h in YNB containing glucose (2%), casamino acids (0.5%), and MES (100 mM pH 6.5). Pre-culture was used to inoculate assay medium comprised of YNB containing glucose (2%), casamino acids (0.5%), MES (100 mM pH 6.5), and olivetolic acid (2 mM). Cultures were quenched with equal volume of ethanol after 48 h total growth and assayed for CBGA and FCBGA. Averages and standard deviations were calculated from replicates.
as §2, §3, §4

divarinic acid [3] = assay: MPT fusions with GPS1.1 vs unfused MPTs, DVA feed (Example 9, Table 11); format: cell-based, Yarrowia; conditions: 2 mM divarinic acid
Procedure: as §5, with “pCL-SE-0337.MPT21,” for “pCL-SE-0337.MPT21, pCL-SE-0337.MPT26, and pCL-SE-0337.MPT31”, “divarinic” for “olivetolic”, “quenched” for “quenched with equal volume of ethanol”, “CBGVA” for “CBGA”, “FCBGVA.” for “FCBGA.”
as §2, §3, §4

olivetolic acid [4] = assay: MPT4.1 with and without GPS1.1 fusion vs MPT4 fusion, in vivo assay (Example 5); format: cell-based, Yarrowia; conditions: 3 mM olivetolic acid
Procedure: As described below, plasmids pCL-SE-0337.MPT4.1 and pCL-SE-0753 were transformed into strain sCL-SE-0128. Multiple colonies per transformation were precultured for 24 h in YNB containing glucose (2%), casamino acids (0.5%), and MES (100 mM pH 6.5). Pre-culture was used to inoculate assay medium comprised of YNB containing glucose (6%), casamino acids (0.5%), MES (100 mM pH 6.5), and olivetolic acid (3 mM). Cultures were quenched with equal volume of ethanol after 48 h total growth and assayed for CBGA and FCBGA. Averages and standard deviations were calculated from replicates.
as §2, §3, §4

olivetolic acid [5] = assay: GPS1.1 fusions of MPT21 mutants, OA feed (Example 8, Table 10); format: cell-based, Yarrowia; conditions: 3 mM olivetolic acid, 6% glucose, 48 h quench; strain sCL-SE-0128
Procedure: as §2, §3, §4

divarinic acid [6] = assay: GPS1.1 fusions of MPT21 mutants, DVA feed (Example 9, Table 12); format: cell-based, Yarrowia; conditions: 2 mM divarinic acid, 2% glucose, quenched after 48 h; strain sCL-SE-0128
Procedure: as §2, §3, §4

olivetolic acid [7] = assay: GPS-APT fusions, OA feed in vivo assay (Example 11); format: cell-based, Yarrowia
Summary of the method: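 Yeast strain sCL-SE-0128 carrying GPS1.1–APT73.77 fusion plasmids (N- or C-terminal, various linkers) was precultured 48 h, then grown in YNB/glucose/casamino acids/MES pH 6.5 with 2 mM olivetolic acid. After 48 h total growth, cultures were quenched with equal-volume ethanol and CBGA/FCBGA measured by HPLC-MS against internal standard.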

[8] = 2% glucose, quenched after 48 h, strain sCL-SE-0128
[9] = 6% glucose, 48 h quench, strain sCL-SE-0128
[10] = olivetolic acid feed as in Example 8, 48 h quench, strain sCL-SE-0128

Molecule	CBGA (olivetolic acid [1]) [µM]	CBGA/FCBGA (olivetolic acid [1])	CBGVA (divarinic acid (DVA)) [µM]	CBGVA/FCBGVA (divarinic acid (DVA))	CBGA (olivetolic acid [2]) [µM]	FCBGA (olivetolic acid [2]) [µM]	CBGA/FCBGA (olivetolic acid [2])	further results
B1	261 ± 62	4.5	620 ± 134	13.7	61 ± 5	14 ± 1	4.4	–
B2	310 ± 11	3.1	647 ± 45	6.0	109 ± 27	43 ± 10	2.6	CBGVA (divarinic acid [3]; [8]): 9 ± 3 µM; FCBGVA (divarinic acid [3]; [8]): 1 ± 1 µM; CBGVA/FCB (divarinic acid [3]; 48 h, product ratio): 10.8
B3	175 ± 63	13.9	260 ± 79	22.6	40 ± 12	3 ± 2	13.4	–
B4	–	–	–	–	–	–	–	CBGA (olivetolic acid [4]; [9]): 425 ± 11 µM; FCBGA (olivetolic acid [4]; [9]): 34 ± 1 µM; CBGA/FCBGA (olivetolic acid [4]; 48 h quench, product ratio): 12.6; increase of the titer of CBGA (olivetolic acid [4]; fusion vs unfused MPT4.1, 48 h): 67%; CBGA (olivetolic acid [5]): 358 ± 0 µM; FCBGA (olivetolic acid [5]): 27 ± 0 µM; CBGVA (divarinic acid [6]): 91 ± 6 µM; FCBGVA (divarinic acid [6]): 0 ± 0 µM; CBGA (olivetolic acid [7]; [10]): 365 ± 22 µM; FCBGA (olivetolic acid [7]; [10]): 26 ± 1 µM; CBGA/FCBG (olivetolic acid [7]; olivetolic acid feed, 48 h quench, product ratio): 14.3
